Assay results taken from US20150344570A1 (published 2015).

T1: FcγRIIb extracellular domain with C-terminal His tag (human, UniProt P31994 43-217)
T1 construct: extracellular domain; soluble analyte in Biacore; also called FcgRIIb; not shown: His tag at the C terminus
T1 sequence (looked up): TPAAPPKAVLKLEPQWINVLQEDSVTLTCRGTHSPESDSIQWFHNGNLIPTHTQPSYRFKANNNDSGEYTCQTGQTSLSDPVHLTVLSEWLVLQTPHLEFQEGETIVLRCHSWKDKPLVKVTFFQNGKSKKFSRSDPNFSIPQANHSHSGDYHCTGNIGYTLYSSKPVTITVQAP

B1: GpH7-B3 variant S298_11K/GpL16-k0 (antibody, human IgG1, kappa)
heavy: not shown
light: DIVMTQSPLSLPVTPGEPASISCQASESLVHSNRNTYLHWYLQKPGQSPQLLIYKVSNRFSGVPDRFSGSGSGTDFTLKISRVEAEDVGVYYCSQNTHVPPTFGQGTKVEIERTVAAPSVFIFPPSDEQLKSGTASVVCLLNNFYPREAKVQWKVDNALQSGNSQESVTEQDSKDSTYSLSSTLTLSKADYEKHKVYACEVTHQGLSSPVTKSFNRGEC
notes: also called Ho Ab S298_11K
B2: GpH7-B3 variant P271_11K/GpL16-k0 (antibody, human IgG1, kappa)
heavy: not shown
light: B1 light
notes: also called Ho Ab P271_11K
B3: GpH7-B3 variant Q295_05P/GpL16-k0 (antibody, human IgG1, kappa)
heavy: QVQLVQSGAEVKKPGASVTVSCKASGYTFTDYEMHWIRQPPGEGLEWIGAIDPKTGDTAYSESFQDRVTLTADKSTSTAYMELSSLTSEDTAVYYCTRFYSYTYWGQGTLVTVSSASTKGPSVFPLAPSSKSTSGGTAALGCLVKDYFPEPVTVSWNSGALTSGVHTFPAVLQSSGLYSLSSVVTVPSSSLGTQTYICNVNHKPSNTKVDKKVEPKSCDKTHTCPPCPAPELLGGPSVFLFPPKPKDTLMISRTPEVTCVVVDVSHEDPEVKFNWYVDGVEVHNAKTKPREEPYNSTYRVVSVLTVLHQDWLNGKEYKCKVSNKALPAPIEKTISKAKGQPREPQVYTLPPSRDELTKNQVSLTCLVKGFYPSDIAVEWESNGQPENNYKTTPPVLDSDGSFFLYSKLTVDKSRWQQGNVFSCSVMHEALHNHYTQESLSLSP
light: B1 light
notes: also called Ho Ab Q295_05P
B4: GpH7-B3 variant S267_01G/GpL16-k0 (antibody, human IgG1, kappa)
heavy: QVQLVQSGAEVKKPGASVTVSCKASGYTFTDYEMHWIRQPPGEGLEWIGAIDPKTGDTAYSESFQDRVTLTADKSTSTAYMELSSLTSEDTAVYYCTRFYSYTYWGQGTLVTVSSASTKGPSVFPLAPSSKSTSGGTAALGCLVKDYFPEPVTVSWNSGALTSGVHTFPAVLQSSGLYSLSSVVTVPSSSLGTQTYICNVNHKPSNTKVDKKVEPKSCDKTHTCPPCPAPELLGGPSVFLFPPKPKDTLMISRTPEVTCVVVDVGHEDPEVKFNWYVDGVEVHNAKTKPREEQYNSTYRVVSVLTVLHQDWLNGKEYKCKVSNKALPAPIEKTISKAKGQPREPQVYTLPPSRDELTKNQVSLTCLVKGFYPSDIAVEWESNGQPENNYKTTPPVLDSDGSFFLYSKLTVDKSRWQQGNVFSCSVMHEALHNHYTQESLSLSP
light: B1 light
notes: also called Ho Ab S267_01G
B5: GpH7-B3 variant P271_12R/GpL16-k0 (antibody, human IgG1, kappa)
heavy: not shown
light: B1 light
notes: also called Ho Ab P271_12R
B6: GpH7-B3 variant P271_04F/GpL16-k0 (antibody, human IgG1, kappa)
heavy: not shown
light: B1 light
notes: also called Ho Ab P271_04F
B7: GpH7-B3 variant S298_01G/GpL16-k0 (antibody, human IgG1, kappa)
heavy: not shown
light: B1 light
notes: also called Ho Ab S298_01G
B8: GpH7-B3 variant S267_02A/GpL16-k0 (antibody, human IgG1, kappa)
heavy: not shown
light: B1 light
notes: also called Ho Ab S267_02A
B9: GpH7-B3 variant S239_14T/GpL16-k0 (antibody, human IgG1, kappa)
heavy: not shown
light: B1 light
notes: also called Ho Ab S239_14T
B10: GpH7-B3 variant Q295_07I/GpL16-k0 (antibody, human IgG1, kappa)
heavy: not shown
light: B1 light
notes: also called Ho Ab Q295_07I
B11: GpH7-B3 variant S298_06M/GpL16-k0 (antibody, human IgG1, kappa)
heavy: not shown
light: B1 light
notes: also called Ho Ab S298_06M
B12: GpH7-B3 variant Q295_14T/GpL16-k0 (antibody, human IgG1, kappa)
heavy: not shown
light: B1 light
notes: also called Ho Ab Q295_14T
B13: GpH7-B3 variant S267_03V/GpL16-k0 (antibody, human IgG1, kappa)
heavy: not shown
light: B1 light
notes: also called Ho Ab S267_03V
B14: GpH7-B3 variant Q295_08L/GpL16-k0 (antibody, human IgG1, kappa)
heavy: not shown
light: B1 light
notes: also called Ho Ab Q295_08L
B15: GpH7-B3 variant S298_02A/GpL16-k0 (antibody, human IgG1, kappa)
heavy: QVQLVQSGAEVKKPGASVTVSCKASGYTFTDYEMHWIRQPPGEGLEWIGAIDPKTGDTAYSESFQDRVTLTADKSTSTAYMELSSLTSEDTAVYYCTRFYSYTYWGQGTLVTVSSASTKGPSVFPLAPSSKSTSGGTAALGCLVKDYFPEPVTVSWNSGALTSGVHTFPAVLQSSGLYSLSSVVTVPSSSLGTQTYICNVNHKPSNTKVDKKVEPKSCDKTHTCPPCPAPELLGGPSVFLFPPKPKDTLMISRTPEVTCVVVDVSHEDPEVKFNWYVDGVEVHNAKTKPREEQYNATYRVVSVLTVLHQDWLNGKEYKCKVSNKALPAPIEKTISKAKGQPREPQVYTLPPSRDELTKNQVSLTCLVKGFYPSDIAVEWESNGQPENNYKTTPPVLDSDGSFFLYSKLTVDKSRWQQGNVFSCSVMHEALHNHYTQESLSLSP
light: B1 light
notes: also called Ho Ab S298_02A
B16: GpH7-B3 variant Q295_13S/GpL16-k0 (antibody, human IgG1, kappa)
heavy: not shown
light: B1 light
notes: also called Ho Ab Q295_13S
B17: GpH7-B3 variant Q295_02A/GpL16-k0 (antibody, human IgG1, kappa)
heavy: not shown
light: B1 light
notes: also called Ho Ab Q295_02A
B18: GpH7-B3 variant S298_03V/GpL16-k0 (antibody, human IgG1, kappa)
heavy: not shown
light: B1 light
notes: also called Ho Ab S298_03V
B19: GpH7-B3 variant S267_08L/GpL16-k0 (antibody, human IgG1, kappa)
heavy: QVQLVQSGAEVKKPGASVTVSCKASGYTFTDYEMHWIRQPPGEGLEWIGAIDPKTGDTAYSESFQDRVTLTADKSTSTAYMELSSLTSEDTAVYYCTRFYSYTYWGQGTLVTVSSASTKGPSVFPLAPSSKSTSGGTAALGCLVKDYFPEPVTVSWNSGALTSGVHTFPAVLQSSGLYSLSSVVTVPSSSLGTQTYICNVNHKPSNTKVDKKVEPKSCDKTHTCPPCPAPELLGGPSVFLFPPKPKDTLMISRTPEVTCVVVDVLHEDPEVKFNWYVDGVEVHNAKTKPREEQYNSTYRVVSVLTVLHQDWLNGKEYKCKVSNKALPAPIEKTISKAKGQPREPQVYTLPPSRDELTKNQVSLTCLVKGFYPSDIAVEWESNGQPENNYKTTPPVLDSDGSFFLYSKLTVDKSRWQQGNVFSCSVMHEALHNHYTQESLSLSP
light: B1 light
notes: also called Ho Ab S267_08L
B20: GpH7-B3 variant S267_16H/GpL16-k0 (antibody, human IgG1, kappa)
heavy: not shown
light: B1 light
notes: also called Ho Ab S267_16H
B21: GpH7-B3 variant Q295_04F/GpL16-k0 (antibody, human IgG1, kappa)
heavy: not shown
light: B1 light
notes: also called Ho Ab Q295_04F
B22: GpH7-B3 variant Q295_03V/GpL16-k0 (antibody, human IgG1, kappa)
heavy: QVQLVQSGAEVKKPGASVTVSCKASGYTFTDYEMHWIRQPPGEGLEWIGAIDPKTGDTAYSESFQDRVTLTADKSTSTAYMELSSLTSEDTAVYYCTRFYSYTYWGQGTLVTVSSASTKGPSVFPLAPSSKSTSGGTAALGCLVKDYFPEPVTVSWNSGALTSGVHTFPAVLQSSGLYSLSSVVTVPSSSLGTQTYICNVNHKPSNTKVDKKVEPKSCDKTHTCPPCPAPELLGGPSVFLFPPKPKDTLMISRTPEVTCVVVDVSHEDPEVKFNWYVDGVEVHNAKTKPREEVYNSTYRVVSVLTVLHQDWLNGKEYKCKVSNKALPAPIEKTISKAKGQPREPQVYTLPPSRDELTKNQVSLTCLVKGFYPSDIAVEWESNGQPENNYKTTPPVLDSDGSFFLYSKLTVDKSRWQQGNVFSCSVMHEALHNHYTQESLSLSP
light: B1 light
notes: also called Ho Ab Q295_03V
B23: GpH7-B3 variant S239_01G/GpL16-k0 (antibody, human IgG1, kappa)
heavy: not shown
light: B1 light
notes: also called Ho Ab S239_01G
B24: GpH7-B3 variant S239_18N/GpL16-k0 (antibody, human IgG1, kappa)
heavy: not shown
light: B1 light
notes: also called Ho Ab S239_18N
B25: GpH7-B3 variant S298_07I/GpL16-k0 (antibody, human IgG1, kappa)
heavy: not shown
light: B1 light
notes: also called Ho Ab S298_07I
B26: GpH7-B3 variant P271_13S/GpL16-k0 (antibody, human IgG1, kappa)
heavy: not shown
light: B1 light
notes: also called Ho Ab P271_13S
B27: GpH7-B3 variant P271_20W/GpL16-k0 (antibody, human IgG1, kappa)
heavy: not shown
light: B1 light
notes: also called Ho Ab P271_20W
B28: GpH7-B3 variant P271_07I/GpL16-k0 (antibody, human IgG1, kappa)
heavy: not shown
light: B1 light
notes: also called Ho Ab P271_07I
B29: GpH7-B3 variant S298_04F/GpL16-k0 (antibody, human IgG1, kappa)
heavy: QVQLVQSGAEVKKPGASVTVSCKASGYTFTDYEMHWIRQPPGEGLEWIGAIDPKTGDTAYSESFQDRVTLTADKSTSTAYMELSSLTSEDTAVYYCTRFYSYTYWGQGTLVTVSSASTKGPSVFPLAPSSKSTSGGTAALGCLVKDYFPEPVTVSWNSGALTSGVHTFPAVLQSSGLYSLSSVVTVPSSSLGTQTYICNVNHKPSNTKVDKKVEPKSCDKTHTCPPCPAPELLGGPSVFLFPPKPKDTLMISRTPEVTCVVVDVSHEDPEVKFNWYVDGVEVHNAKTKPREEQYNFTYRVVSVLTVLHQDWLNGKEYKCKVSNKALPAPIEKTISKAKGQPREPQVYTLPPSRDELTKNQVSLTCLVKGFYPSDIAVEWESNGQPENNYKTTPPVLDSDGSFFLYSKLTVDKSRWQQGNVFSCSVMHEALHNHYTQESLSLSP
light: B1 light
notes: also called Ho Ab S298_04F
B30: GpH7-B3 variant P271_06M/GpL16-k0 (antibody, human IgG1, kappa)
heavy: not shown
light: B1 light
notes: also called Ho Ab P271_06M
B31: GpH7-B3 variant S267_09D/GpL16-k0 (antibody, human IgG1, kappa)
heavy: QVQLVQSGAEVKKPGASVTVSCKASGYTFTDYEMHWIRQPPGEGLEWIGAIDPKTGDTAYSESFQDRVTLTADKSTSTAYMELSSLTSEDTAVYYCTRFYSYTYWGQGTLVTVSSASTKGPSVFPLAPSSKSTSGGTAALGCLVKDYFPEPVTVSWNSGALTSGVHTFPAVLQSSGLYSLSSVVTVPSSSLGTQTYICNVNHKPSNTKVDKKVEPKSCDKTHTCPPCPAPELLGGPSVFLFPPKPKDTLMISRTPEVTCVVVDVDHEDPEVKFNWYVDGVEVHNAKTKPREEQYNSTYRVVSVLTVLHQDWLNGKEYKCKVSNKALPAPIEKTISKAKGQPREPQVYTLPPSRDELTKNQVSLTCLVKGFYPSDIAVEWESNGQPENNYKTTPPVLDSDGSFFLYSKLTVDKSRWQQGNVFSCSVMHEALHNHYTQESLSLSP
light: B1 light
notes: also called Ho Ab S267_09D
B32: GpH7-B3 variant Q295_18N/GpL16-k0 (antibody, human IgG1, kappa)
heavy: not shown
light: B1 light
notes: also called Ho Ab Q295_18N
B33: GpH7-B3 variant S239_09D/GpL16-k0 (antibody, human IgG1, kappa)
heavy: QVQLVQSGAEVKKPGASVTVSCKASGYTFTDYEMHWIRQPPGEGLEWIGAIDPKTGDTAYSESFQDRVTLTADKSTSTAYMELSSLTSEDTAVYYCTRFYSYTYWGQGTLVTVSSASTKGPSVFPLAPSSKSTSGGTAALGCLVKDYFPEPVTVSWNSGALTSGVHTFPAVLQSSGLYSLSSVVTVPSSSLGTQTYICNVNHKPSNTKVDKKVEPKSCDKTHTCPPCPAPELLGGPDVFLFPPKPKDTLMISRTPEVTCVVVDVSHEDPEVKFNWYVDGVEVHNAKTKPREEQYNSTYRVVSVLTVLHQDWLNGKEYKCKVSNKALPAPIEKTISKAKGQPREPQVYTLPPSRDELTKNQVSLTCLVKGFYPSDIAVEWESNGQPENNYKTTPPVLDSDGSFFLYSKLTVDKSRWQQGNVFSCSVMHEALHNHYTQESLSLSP
light: B1 light
notes: also called Ho Ab S239_09D; GpH7-B3-06-09D/GpL16-k0
B34: GpH7-B3 variant S239_19Q/GpL16-k0 (antibody, human IgG1, kappa)
heavy: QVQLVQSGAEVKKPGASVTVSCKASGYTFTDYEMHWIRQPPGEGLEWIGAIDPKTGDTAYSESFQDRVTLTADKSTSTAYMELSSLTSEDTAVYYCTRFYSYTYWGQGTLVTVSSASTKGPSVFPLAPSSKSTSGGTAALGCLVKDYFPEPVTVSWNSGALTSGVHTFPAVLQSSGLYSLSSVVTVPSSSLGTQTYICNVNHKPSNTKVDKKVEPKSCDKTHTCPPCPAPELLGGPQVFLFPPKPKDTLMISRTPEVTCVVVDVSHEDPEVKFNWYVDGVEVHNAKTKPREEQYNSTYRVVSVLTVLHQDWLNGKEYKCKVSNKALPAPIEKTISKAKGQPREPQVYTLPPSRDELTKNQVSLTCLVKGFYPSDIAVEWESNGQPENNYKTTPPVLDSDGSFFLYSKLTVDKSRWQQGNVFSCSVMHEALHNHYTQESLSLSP
light: B1 light
notes: also called Ho Ab S239_19Q
B35: GpH7-A5/GpH7-B3 variant S324_19Q/GpL16-k0 (antibody, human IgG1, kappa)
heavy 1: not shown
heavy 2: not shown
light: B1 light
notes: change in the GpH7-B3 H chain only; also called He Ab
B36: GpH7-A5/GpH7-B3 variant T335_06M/GpL16-k0 (antibody, human IgG1, kappa)
heavy 1: not shown
heavy 2: not shown
light: B1 light
notes: as for B35
B37: GpH7-A5/GpH7-B3 variant T335_11K/GpL16-k0 (antibody, human IgG1, kappa)
heavy 1: not shown
heavy 2: not shown
light: B1 light
notes: as for B35
B38: GpH7-A5/GpH7-B3 variant T335_02A/GpL16-k0 (antibody, human IgG1, kappa)
heavy 1: not shown
heavy 2: not shown
light: B1 light
notes: as for B35
B39: GpH7-A5/GpH7-B3 variant T335_01G/GpL16-k0 (antibody, human IgG1, kappa)
heavy 1: not shown
heavy 2: not shown
light: B1 light
notes: as for B35
B40: GpH7-A5/GpH7-B3 variant S324_20W/GpL16-k0 (antibody, human IgG1, kappa)
heavy 1: not shown
heavy 2: not shown
light: B1 light
notes: as for B35
B41: GpH7-A5/GpH7-B3 variant T335_05P/GpL16-k0 (antibody, human IgG1, kappa)
heavy 1: not shown
heavy 2: not shown
light: B1 light
notes: as for B35
B42: GpH7-A5/GpH7-B3 variant T335_12R/GpL16-k0 (antibody, human IgG1, kappa)
heavy 1: not shown
heavy 2: not shown
light: B1 light
notes: as for B35

Target: T2, FcγRIa (human, UniProt P12314 16-292)
T2 construct: extracellular domain; Soluble extracellular domain expressed in FreeStyle293 cells, used as analyte in Biacore; also called FcgRI; 1a; not shown: His tag attached to the C terminus
Test: SPR (Biacore); Ho Ab vs HoCon Ab GpH7-B3/GpL16-k0
Protocol: Analysis of interaction between objective antibody and the FcγR was carried out using Biacore T100 (GE Healthcare). HBS-EP+ (GE Healthcare) was used as the running buffer, and the measurement temperature was set to 25° C. Chips produced by immobilizing the antigen peptide by the amine coupling method to a Series S Sencor Chip CM5 (GE Healthcare), or alternatively, chips produced by allowing preliminarily biotinylated antigen peptides to interact with and immobilize onto a Series S Sensor Chip SA (certified) (GE Healthcare) were used. Antibodies of interest were captured onto an antigen peptide-immobilized chip, and allowed to interact to each FcγR diluted with running buffer. To regenerate and repeatedly use the chip, the antibodies captured on the chip were washed off by reacting 10 mM glycine-HCl, pH 1.5.

T2 sequence (P12314 16-292): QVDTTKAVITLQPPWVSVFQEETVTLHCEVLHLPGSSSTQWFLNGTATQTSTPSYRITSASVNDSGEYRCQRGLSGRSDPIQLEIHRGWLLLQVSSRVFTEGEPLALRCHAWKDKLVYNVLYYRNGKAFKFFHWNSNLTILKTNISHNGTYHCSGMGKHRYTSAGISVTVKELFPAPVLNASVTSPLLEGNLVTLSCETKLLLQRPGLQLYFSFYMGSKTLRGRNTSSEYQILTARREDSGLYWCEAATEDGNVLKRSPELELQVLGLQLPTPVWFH

Row | Ho/Con_1a | Binder
1 | 90.4 relative binding, control = 100 | B1
2 | 101 relative binding, control = 100 | B2
3 | 101 relative binding, control = 100 | B3
4 | 102 relative binding, control = 100 | B4
5 | 101 relative binding, control = 100 | B5
6 | 100 relative binding, control = 100 | B6
7 | 103 relative binding, control = 100 | B7
8 | 108 relative binding, control = 100 | B8
9 | 101 relative binding, control = 100 | B9
10 | 101 relative binding, control = 100 | B10
11 | 106 relative binding, control = 100 | B11
12 | 102 relative binding, control = 100 | B12
13 | 102 relative binding, control = 100 | B13
14 | 103 relative binding, control = 100 | B14
15 | 106 relative binding, control = 100 | B15
16 | 101 relative binding, control = 100 | B16
17 | 104 relative binding, control = 100 | B17

Row | Ho/Con_1a | Binder
18 | 106 relative binding, control = 100 | B18
19 | 99.9 relative binding, control = 100 | B19
20 | 98.2 relative binding, control = 100 | B20
21 | 100 relative binding, control = 100 | B21
22 | 102 relative binding, control = 100 | B22
23 | 101 relative binding, control = 100 | B23
24 | 97.9 relative binding, control = 100 | B24
25 | 103 relative binding, control = 100 | B25
26 | 101 relative binding, control = 100 | B26
27 | 102 relative binding, control = 100 | B27
28 | 102 relative binding, control = 100 | B28
29 | 107 relative binding, control = 100 | B29
30 | 102 relative binding, control = 100 | B30
31 | 106 relative binding, control = 100 | B31
32 | 101 relative binding, control = 100 | B32
33 | 101 relative binding, control = 100 | B33
34 | 93.4 relative binding, control = 100 | B34

Target: T3, FcγRIa extracellular domain with C-terminal His tag (human, UniProt P12314 16-292)
T3 construct: extracellular domain; soluble analyte in Biacore; also called FcgRI; not shown: His tag at the C terminus
Test: SPR, binding relative to GpH7-A5/GpH7-B3/GpL16-k0 = 100

T3 sequence (P12314 16-292): as above

Row | He/Con_1a | Binder
35 | 112 % of control | B35
36 | 107 % of control | B36
37 | 111 % of control | B37
38 | 103 % of control | B38
39 | 104 % of control | B39
40 | 114 % of control | B40
41 | 106 % of control | B41
42 | 113 % of control | B42

Target: T1, FcγRIIb extracellular domain with …
Test: as above

Row | He/Con_2b | Binder
43 | 66.8 % of control | B35
44 | 99.4 % of control | B36
45 | 91 % of control | B37
46 | 94 % of control | B38
47 | 96.7 % of control | B39
48 | 87.5 % of control | B40
49 | 99.9 % of control | B41
50 | 91.9 % of control | B42
